The target in experiment [1] is T1, ARNTL peptide loaded T2 cells (human, UniProt P61769 21-119).
T1 construct: whole, on cells; also called ARNTL/T2
The experiment in a line: flow cytometry, peptide-loaded T2 cells. In general terms: In flow cytometry, cells or beads pass a laser one at a time.

The target in experiment [2] is T2, PTP4A1 peptide loaded T2 cells (human, UniProt P61769 21-119).
T2 construct: whole, on cells; also called PTP4A1-pulsed T2 cells
The experiment in a line: flow cytometry, peptide-loaded T2 cells.

Experiment [3] has as its target T3, ATG9A peptide loaded T2 cells (human, UniProt P61769 21-119).
T3 construct: whole, on cells; also called ATG9A/T2
Nature of the experiment: flow cytometry, peptide-loaded T2 cells.

The target in experiment [4] is T4, OR1I1 peptide loaded T2 cells (human, UniProt P61769 21-119).
T4 construct: whole, on cells; also called OR1I1/T2
The experiment in a line: flow cytometry, peptide-loaded T2 cells.

The target of experiment [5] is T5, RP1 peptide loaded T2 cells (human, UniProt P61769 21-119).
T5 construct: whole, on cells; also called RP1/T2
The experiment in a line: flow cytometry, peptide-loaded T2 cells.

The target in experiment [6] is T6, RCL1 peptide loaded T2 cells (human).
T6 construct: whole, on cells; also called RCL1/T2
Nature of the experiment: flow cytometry, peptide-loaded T2 cells.

Experiment [7] has as its target T7, OR6C1 peptide loaded T2 cells (human, UniProt P61769 21-119).
T7 construct: whole, on cells; also called OR6C1/T2
Nature of the experiment: flow cytometry, peptide-loaded T2 cells.

Experiment [8] concerns the target T8, CDC14A peptide loaded T2 cells (human, UniProt P61769 21-119).
T8 construct: whole, on cells; also called CDC14A/T2
The experiment in a line: flow cytometry, peptide-loaded T2 cells.

In experiment [9] the target is T9, ZNF566 peptide loaded T2 cells (human, UniProt P61769 21-119).
T9 construct: whole, on cells; also called ZNF566/T2
Nature of the experiment: flow cytometry, peptide-loaded T2 cells.

The target of experiment [10] is T10, BRCA2 peptide loaded T2 cells (human).
T10 construct: whole, on cells; also called BRCA2/T2
Nature of the experiment: flow cytometry, peptide-loaded T2 cells.

The target in experiment [11] is T11, OR51B6 peptide loaded T2 cells (human, UniProt P61769 21-119).
T11 construct: whole, on cells; also called OR51B6/T2
The experiment in a line: flow cytometry, peptide-loaded T2 cells.

The target of experiment [12] is T12, NR2E1 peptide loaded T2 cells (human, UniProt P61769 21-119).
T12 construct: whole, on cells; also called NR2E1/T2
Nature of the experiment: flow cytometry, peptide-loaded T2 cells.

Experiment [13] concerns the target T13, AFP158/HLA-A*02:01 complex (human).
T13 construct: biotinylated on the BSP by BirA for ELISA and panning; also called biotinylated AFP158/HLA-A*02:01 complex; Bio-AFP158
The experiment in a line: SPR, scFv-mIgG2aFc from supernatant captured, complex as analyte. In general terms: SPR reads the build-up and loss of mass on a sensor chip optically.
Description: (§1) The binding affinity between selected antibodies and AFP158/HLA-A*02:01 complex was determined by surface plasmon resonance (SPR) on a BIAcore T200 instrument (GE Healthcare). The experiment was carried out as follows. The purified sdAb/scFv-mIgG2aFc protein were captured through mIgG2a-Fc onto the sensorchip. […] On-rate (kₐ) and off-rate (kd) were calculated based on association and dissociation curve, and were used to estimate the equilibrium dissociation constant (KD).
(§2) Humanized heavy chains and light chains were combined, and used to produce a series of humanized antibodies. These antibodies were synthesized as scFv-mIgG2aFc and transiently produced using HEK293 cells. The antibodies in the supernatant were subjected to SPR affinity assessment.

Experiment [14] has as its target T13, AFP158/HLA-A*02:01 complex. Described as above. This is another data set of the same source.
Description: as §1, §2
The target is the same in experiment [15]. The experiment in a line: SPR, antibody captured via mIgG2a-Fc, complex as analyte.
Description: as §1
Experiment [16] shares this target. Nature of the experiment: SPR, scFv-mIgG2aFc from supernatant captured, complex as analyte. The source holds these as a separate data set.
Description: as §1, §2
The target in experiment [17] is T2, PTP4A1 peptide loaded T2 cells. Nature of the experiment: flow cytometry, 30 or 50 nM i647-labelled antibody.
Description: At the concentration of 30 or 50 nM, binding of 7 antibodies to T2 cells loaded with AFP158, 50 endogenous self-peptides and 12 homologous peptides were carried out using flow cytometry.

Positions count from the first letter of the chain named.

B1: AS170036 VL1VH1 scFv-mIgG2aFc (Fc fusion, not shown: a dimerising Fc or GST)
chain: QSALTQPRSVSGSPGQSVTISCAGTSSDVGSENYVSWYQQHPGKAPKLMIYQVNKRASGVPDRFSGSKSGNTASLTISGLQAEDEADYYCASYRSSDHNIVFGGGTKLTVLGGGGSGGGGSGGGGSEVQLVESGGGLVQPGGSLRLSCAASGFTFSSYAMSWVRQAPGKGLEWVSTINSGTGSPYYADSVKGRFTISRDNSKNTLYLQMNSLRAEDTAVYYCAKNFFDGSWFLGPPAMDYWGQGTLVTVSS
notes: Humanized
As usually defined, the Kd is the concentration at which binding is half-saturated. A high value points to lower affinity. The term koff denotes a measure of how fast the partners let go of each other. Low readings indicate a long-lived complex, high ones a short-lived complex. A word on the kon: it is a measure of how fast the partners come together. Regarding B1, the binding result in experiment [1], in [2], in experiment [3], in experiment [4], in [5] and in [6] was “no binding (tested: 30 or 50 nM)” throughout. Further, the binding result in experiment [7], in experiment [8], in experiment [9], in [10], in [11] and in [12] was “no binding (tested: 30 or 50 nM)” each time. Besides, the equilibrium dissociation constant (Kd) in [13] worked out at 360 nM. Besides, the off-rate constant (koff) in experiment [13] was found to be 0.062 s⁻¹. Also, in [13], the kon stood at 170000 M⁻¹ s⁻¹.

B2: AS179723 scFv-mIgG2aFc (Fc fusion, not shown: a dimerising Fc or GST)
chain: QAGLTQPPSMSGSPRQSVTISCTGSSNNIGGNYVNWYQHLPGTAPKLLIYDNKNRPSGVPEQISGSKSGSSASLTITGLQAEDEGDYYCASWDDSLSAVVFGGGTHLTVLGGGGSGGGGSGGGGSEVQLVESGGGLVQPGGSLRLSCAASGFTFLNYAMSWVRQAPGKGLEWVSSNSGAGSTYYSDSVKGRFTISRDYAKNVVYLQLNSLKTEDTGMYYCAKGTNVGSWSSLHYWGQGTQVTVSS
notes: Camel scFv; i647-labelled for flow cytometry
Regarding B2, the binding result in experiment [1], in experiment [2], in experiment [3], in experiment [4], in experiment [5] and in [6] was “no binding (tested: 30 or 50 nM)” in each case. For the same molecule, the binding result in experiment [7], in experiment [8], in experiment [9], in experiment [10], in [11] and in [12] was “no binding (tested: 30 or 50 nM)” throughout. The figures for the Kd in experiment [14] and in experiment [15] were 28 nM and 39 nM, respectively. Also, the results for the koff in [14] and in experiment [15] were 0.0041 s⁻¹ and 0.0042 s⁻¹, respectively. Further, the kon was found to be 150000 M⁻¹ s⁻¹ in experiment [14] and 110000 M⁻¹ s⁻¹ in experiment [15].

B3: AS179732 scFv-mIgG2aFc (Fc fusion, not shown: a dimerising Fc or GST)
chain: B2 chain with Q1N, A2F, G3M, N27S, K53S, P56A, Q62R, I63F, A98G, V99A
notes: as for B2
Regarding B3, the values for the Kd in [16] and in [15] were 47 nM and 67 nM, respectively. Also, the koff in experiment [16] was determined as 0.0075 s⁻¹; in experiment [15], 0.0086 s⁻¹. In addition, the on-rate constant (kon) was 160000 M⁻¹ s⁻¹ in experiment [16] and 130000 M⁻¹ s⁻¹ in [15]. Also, the binding result in experiment [1], in [2], in experiment [3], in experiment [4], in [5] and in experiment [6] was “no binding (tested: 30 or 50 nM)” throughout. The binding result in experiment [7], in experiment [8], in experiment [9], in experiment [10], in experiment [11] and in experiment [12] was “no binding (tested: 30 or 50 nM)” throughout.

B4: ET1402L1 scFv fused to a C-terminal mouse IgG2a Fc region (Fc fusion, not shown: a dimerising Fc or GST)
chain: QSVLTQPASVSGSPGQSITISCTGTSSDVGGYNYVSWYQQHPGKAPKLMIYDVNNRPSEVSNRFSGSKSGNTASLTISGLQAEDEADYYCSSYTTGSRAVFGGGTKLTVLGGGGSGGGGSGGGGSEVQLVQSGAEVKKPGESLTISCKASGYSFPNYWITWVRQMSGGGLEWMGRIDPGDSYTTYNPSFQGHVTISIDKSTNTAYLHWNSLKASDTAMYYCARYYVSLVDIWGQGTLVTVSS
notes: also called positive control antibody
For B4, the binding result in experiment [17] is on record as “binds”.

B5: AS170036 scFv-mIgG2aFc (Fc fusion, not shown: a dimerising Fc or GST)
chain: QLVLTQPSSVSGTPGQTVTISCAGTSSDVGSENYVSWYRQLPGTAPKLLIYQVNKRASGIADRFSGSKSGNTASMTISGLQSADEADYYCASYRSSDHNIVFGGGTHLTVLGGGGSGGGGSGGGGSAVQLVESGGGLVQPGGSLRLSCTASGFTFSSYAMSWVRQAPGKGLEWVSTINSGTGSPYYADSVKGRFTISRDNAKNTLYLQLNSLKTEDTAMYYCAKNFFDGSWFLGPPAMDYWGKGTLVTISS
notes: Camel scFv
In the case of B5, the binding result in experiment [1], in experiment [2], in experiment [3], in [4], in experiment [5] and in experiment [6] was “no binding (tested: 30 or 50 nM)” in each case. For the same molecule, the binding result in [7], in [8], in experiment [9], in experiment [10], in experiment [11] and in experiment [12] was “no binding (tested: 30 or 50 nM)” in each case. The results for the Kd in experiment [13] and in experiment [15] were 450 nM and 250 nM, respectively. Also, the koff in [13] worked out at 0.19 s⁻¹; in experiment [15], 0.06 s⁻¹. For the same molecule, the kon in experiment [13] was 430000 M⁻¹ s⁻¹; in experiment [15], 240000 M⁻¹ s⁻¹.

The values above are taken from patent publication US20240279318A1 (NANJING LEGEND BIOTECH, published 2024).
